Results on 3 molecules are retold here after paper PMC6888739, “SiMYB3 in Foxtail Millet (Setaria italica) Confers Tolerance to Low-Nitrogen Stress by Regulating Root Growth in Transgenic Plants”.

The chains are these.
B1: TAR2 promoter mutant probe (dsDNA)
DNA 1: TTAAGTACATGATTAATTAACGTAATCCAATA
DNA 2: TATTGGATTACGTTAATTAATCATGTACTTAA
B2: TAR2 promoter MYB-element probe (dsDNA)
DNA 1: TTAAGTACATGAGTTAGGTTCGTAATCCAATA
DNA 2: TATTGGATTACGAACCTAACTCATGTACTTAA
B3: OsFIB promoter MYB-motif probe (dsDNA)
DNA 1: GCGATAGAATGTGTCGTATCCCGAGCTAGTTTTGTTCGAACATACAGCC
DNA 2: GGCTGTATGTTCGAACAAAACTAGCTCGGGATACGACACATTCTATCGC

In this data set the target is T1, SiMYB3 (Setaria italica, UniProt K3YEJ5 1-315).
T1 sequence: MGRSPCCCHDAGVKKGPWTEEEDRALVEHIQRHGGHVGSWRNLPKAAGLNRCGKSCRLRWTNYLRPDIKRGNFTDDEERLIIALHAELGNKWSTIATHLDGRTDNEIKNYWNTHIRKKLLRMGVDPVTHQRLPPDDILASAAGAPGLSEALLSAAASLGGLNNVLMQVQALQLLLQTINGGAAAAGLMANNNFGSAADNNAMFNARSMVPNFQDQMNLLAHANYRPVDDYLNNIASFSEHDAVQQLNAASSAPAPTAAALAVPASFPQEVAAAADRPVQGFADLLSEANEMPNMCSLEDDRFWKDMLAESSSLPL
The data set is described as follows: EMSA; EMSA 20 uL: 30 ng GST-SiMYB3, 400 fmol biotin probe, 10 mM Tris pH 7.5, 50 mM KCl, 1 mM DTT, 2.5% glycerol, 5 mM MgCl2, 50 ng/uL poly(dI-dC), 0.05% NP-40; temperature not stated. As to conditions: protein: recombinant; label: biotin.
With B1, the binding result is reported as “no binding”. The result for B2 reads “binds”. As to B3, the binding result is listed as “binds”.
